# Measurements from patent US20120189639A1 (Merck Sharp & Dohme, published 2012).
# Substitutions are numbered along the chain they refer to.
# T1: human GITR on naïve CD4+ T cells (human, UniProt Q9Y5U5 26-241)
# T1 sequence: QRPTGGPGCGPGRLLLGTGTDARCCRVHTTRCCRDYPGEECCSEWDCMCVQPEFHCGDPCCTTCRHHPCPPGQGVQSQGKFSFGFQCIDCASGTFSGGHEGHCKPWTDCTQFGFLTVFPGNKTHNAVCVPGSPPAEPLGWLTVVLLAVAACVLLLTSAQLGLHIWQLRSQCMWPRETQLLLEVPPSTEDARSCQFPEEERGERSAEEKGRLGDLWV
# T2: hGITR-hIgG (human, UniProt Q9Y5U5 26-161, limits assumed)
# T2 construct: not shown: human IgG part of the fusion
# T2 sequence: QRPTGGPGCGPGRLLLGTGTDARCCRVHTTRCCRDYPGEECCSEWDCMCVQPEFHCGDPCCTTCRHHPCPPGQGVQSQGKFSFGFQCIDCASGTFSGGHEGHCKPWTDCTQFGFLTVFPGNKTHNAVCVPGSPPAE
# B1: 9E5 (antibody, V domains shown)
# VH: QVTLKESGPGILQPSQTLSLTCTFSGFSLSTYGVGVGWIRQPSGKGLEWLANIWWDDDNYYNPSLIHRLTVSKDTSNNQAFLKITNVDTAETATYYCAQIKEPRDWFFEFWGPGTMVSVSS
# VL: DIQMTQTPSSMPASLGERVTIFCRASQGVNNFLTWYQQKPDGTIKPLIFYTSNLQSGVPSRFSGSGSGTDYSLSISSLEPEDFAMYYCQQYHGFPNTFGAGTKLELKR
# notes: Parental rodent anti-human GITR monoclonal antibody from a hybridoma; kappa VL; also called 9E5.C1
# B2: 31H6 (antibody, V domains shown)
# VH: B1 VH with N59K, I66K, H67N, V71I
# VL: B1 VL with F32Y
# notes: Parental rodent anti-human GITR monoclonal antibody from a hybridoma; kappa VL; also called 31H6.B7
# B3: 17F10 (antibody, V domains shown)
# VH: EVKLVESGGGFVKPGGSLKLSCAASGFTVRNYAMSWVRQTPEKRLEWVASISTGDRSYLPDSMKGRFTISRDNARNILYLQMSSLRSEDTAIYYCQRYFDFDSFAFWGQGTLVTVSA
# VL: DIQMTQTPSSLSASLGDRVTISCRASQDINNFLNWYQQKPDGSLKLLIYYTSKLHSGVPSRFSGSGSGTDFSLTISNLDQEDVATYFCQQGHTLPPTFGGGTKLEVKR
# notes: Parental rodent anti-human GITR monoclonal antibody from a hybridoma; kappa VL; also called 17F10.B1
# B4: 1D8 (antibody, V domains shown)
# VH: QVTLKESGPGILKPSQTLSLTCSFSGFSLSTSGMGVGWIRQPSGKGLEWLAHIWWDDDKYYSPSLKSQLTISKDTSRNQVFLKITSLDTADTATYYCVRSYYYGSSGAMDYWGQGTSVTVSS
# VL: DIVMTQTPLSLPVSLGDQASISCRSSQSLVHSDGNTYLHWYLQKPGQSPKLLIYKVSKRFSGVPDRFSGSGSGTDFTLKISRVEAEDLGVYFCSQSTHVPPTFGGGTKLEIKR
# notes: Parental rodent anti-human GITR monoclonal antibody from a hybridoma; kappa VL; also called 1D8.B5
# Target: T1, human GITR on naïve CD4+ T cells
# Assay: cell-based or functional assay
Binder,"proliferation of naïve CD4+ T cells, mean, at 0.4 ng/mL Ab","proliferation of naïve CD4+ T cells, mean, at 0.9 ng/mL Ab","proliferation of naïve CD4+ T cells, mean, at 2.2 ng/mL Ab","proliferation of naïve CD4+ T cells, mean, at 5.2 ng/mL Ab","proliferation of naïve CD4+ T cells, mean, at 12.6 ng/mL Ab","proliferation of naïve CD4+ T cells, mean, at 30.1 ng/mL Ab","proliferation of naïve CD4+ T cells, mean, at 72.3 ng/mL Ab","proliferation of naïve CD4+ T cells, mean, at 173.6 ng/mL Ab","proliferation of naïve CD4+ T cells, mean, at 416.7 ng/mL Ab","proliferation of naïve CD4+ T cells, mean, at 1000.0 ng/mL Ab"
B1,60100,60900,69200,77700,85700,83400,85300,84600,79700,83600
B2,58500,57000,67600,79600,90500,94700,98600,96900,86900,87500
B3,58700,62000,73400,77800,90200,87000,83500,87500,85700,89400
B4,60800,64800,78500,98200,115000,112000,103000,91000,,

# Target: T2, hGITR-hIgG
# Assay: BIAcore SPR; hGITR-hIgG capture antigen, mAb analyte
# Method: (§1) BIAcore determinations are performed essentially as described at Example 4 of co-pending, commonly assigned U.S. patent application Ser. No. 11/511,635 (filed 29 Aug. 2006). Briefly, binding partners are immobilized on a BIAcore CM5 sensor chip using standard amine-coupling procedure. Kinetic constants for the various interactions are determined using BIAevaluation software 3.1. The Kd is determined using the calculated dissociation and association rate constants.
Binder,koff [s⁻¹],kon [M⁻¹ s⁻¹]
B1,2.7e-05,2.33e+06
B2,7e-06,1.57e+06
B3,0.000146,1.31e+06
B4,0.000196,428000

# Target: T2, hGITR-hIgG
# Assay: BIAcore SPR; hGITR-hIgG capture antigen, mAb analyte; apparent Kd
# Method: as §1
row,Binder,Kd [nM]
1,B1,0.012
2,B2,≤ 0.005
3,B3,0.111
4,B4,0.458
